B1: scFv-hERG1-D8Cys (scFv)
scFv: EVQLQQSGPELVKPGASVKISCKTSGYTFTEYTVHWVKQSHGKSLEWIGGINPNGGTTYNQKFKGKATLTIDKSSSSAFMELRSLTSEDSAVYYCATGWGPDYWGQGTTLTVSSAKTTPPSVYPLAPGSSGGGGSGGGGSGGSALDIVLTQSPLTLSVNIGQPASISCKSSQSLLYTNGKTYFNWLLQRPGQSPKRLIYLVSKLDSGVPDRFTGSGSGTDFTLKISRVEAEDLGVYYCAQGTHFPWTFGGGTKLEIKRADAAPTVSAAAEQKLISEEDLNGAA
notes: Clone D8, expressed in Pichia pastoris from pPIC9K with a 6xHis tag; Also tested after conjugation with Alexa 488; also called scFv-hERG1-Cys; anti-hERG1-Cys scFv
B2: scDb-hERG1-Cys-β1 (bispecific antibody)
chain: EAECADEVQLQQSGPELVKPGASVKISCKTSGYTFTEYTVHWVKQSHGKSLEWIGGINPNGGTTYNQKFKGKATLTIDKSSSSAFMELRSLTSEDSAVYYCATGWGPDYWGQGTTLTVSSAKTTPPSVYPLAPGSSDIVMTQTPTTMAASPGDKITITCSVSSIISSNYLHWYSQKPGFSPKLLIYRTSNLASGVPPRFSGSGSGTSYSLTIGTMEAEDVATYYCQQGSDIPLTFGDGTKLDLKRADAAPTVSGGGGSGGGGSGGGGSGGGGSEVKVVESGGGLVKPGGSLKLSCAASGFTFSSYTMSWVRQTPEKRLEWVATISSGGSYTYYPDSVKGRFTISRDKAKNTLYLQMGSLKSEDTAMYYCTRIGYDEDYAMDHWGQGTSVTVSSAKTTPPSVYSALDIVLTQSPLTLSVNIGQPASISCKSSQSLLYTNGKTYFNWLLQRPGQSPKRLIYLVSKLDSGVPDRFTGSGSGTDFTLKISRVEAEDLGVYYCAQGTHFPWTFGGGTKLEIKRADAAPTVSAAAEQKLISEEDLNGAPRHHHHHHHH

Experiments:
hERG1 [1] = target: T1, hERG1 (human, UniProt Q12809 1-1159); test: immunofluorescence on fixed and live HEK293-hERG1 cells, intensity by ImageJ
T1 construct: whole, on cells; also called human ether-a-go-go-related gene 1 potassium channel; hERG1 antigen
Procedure: Then an immunofluorescence analysis was performed using scFv-hERG1-G3 and scFv-hERG1-D8Cys on fixed cells, to determine the immunoreactivity of the two antibodies. […] Data analysis obtained using ImageJ Software is reported in the graphs reported in panel C.
Cells were seeded O/N on glass coverslips and then washed once with PBS and fixed with 4% paraformaldeide for 20 min at room temperature. Blocking was performed with 10% BSA for 2 h at room temperature. Antibody incubation was performed using scFv-hERG1-G3, scFv-hERG1-D8Cys, diluted 1:20 in blocking solution and incubated for 2 and half hours, followed by anti-His (1:250; Abcam) O/N incubation in blocking solution. The following day, cells were washed three times with PBS and incubated with anti-mouse Alexa488 antibody (Invitrogen) for 1 h. Whereas, scFv-hERG1-G3-Alexa488 and scFv-hERG1-D8Cys-Alexa488, diluted 1:20 in blocking solution, were incubated O/N at 4° C.
Cells were grown O/N on 60 mm plates (Sarstedt) using an agarose (15 g/L) ring in order to isolate cells and minimize the volumes of reagents needed for incubations. Cells were incubated with scFv-hERG1-G3-Alexa488 and scFv-hERG1-D8Cys-Alexa488 diluted 1:20 in complete culture medium in a 37° C. incubator with 5% C02 for 4 h. Rivelation was performed using Hoechst, as previously described. Cells were visualized on a inverted light microscopy (Nikon, Eclipse TE300).

S5-Pore peptide = target: T2, S5-Pore peptide; test: binding to immobilized antigen (method section: ELISA on plates coated with S5-Pore peptide)
T2 construct: Peptide of the S5-pore extracellular portion of hERG1; also called S5PORO peptide; peptide S5PORO
T2 peptide: EQPHMDSRIGWLHN
Procedure: To evaluate if the two engineered antibodies, scFv-hERG1-G3 and scFv-hERG1-D8Cys, have still the ability to bind the antigen and afterwards to investigate the different affinity of the two antibodies ELISA assays were performed using plates coated with S5-Pore peptide (sequence: […]), towards which the antibody is directed. This peptide is the same we used to screen anti-hERG1 A7 antibody.

hERG1 [2] = target: T1, hERG1; test: cell-based or functional assay

T1 sequence (Q12809 whole entry): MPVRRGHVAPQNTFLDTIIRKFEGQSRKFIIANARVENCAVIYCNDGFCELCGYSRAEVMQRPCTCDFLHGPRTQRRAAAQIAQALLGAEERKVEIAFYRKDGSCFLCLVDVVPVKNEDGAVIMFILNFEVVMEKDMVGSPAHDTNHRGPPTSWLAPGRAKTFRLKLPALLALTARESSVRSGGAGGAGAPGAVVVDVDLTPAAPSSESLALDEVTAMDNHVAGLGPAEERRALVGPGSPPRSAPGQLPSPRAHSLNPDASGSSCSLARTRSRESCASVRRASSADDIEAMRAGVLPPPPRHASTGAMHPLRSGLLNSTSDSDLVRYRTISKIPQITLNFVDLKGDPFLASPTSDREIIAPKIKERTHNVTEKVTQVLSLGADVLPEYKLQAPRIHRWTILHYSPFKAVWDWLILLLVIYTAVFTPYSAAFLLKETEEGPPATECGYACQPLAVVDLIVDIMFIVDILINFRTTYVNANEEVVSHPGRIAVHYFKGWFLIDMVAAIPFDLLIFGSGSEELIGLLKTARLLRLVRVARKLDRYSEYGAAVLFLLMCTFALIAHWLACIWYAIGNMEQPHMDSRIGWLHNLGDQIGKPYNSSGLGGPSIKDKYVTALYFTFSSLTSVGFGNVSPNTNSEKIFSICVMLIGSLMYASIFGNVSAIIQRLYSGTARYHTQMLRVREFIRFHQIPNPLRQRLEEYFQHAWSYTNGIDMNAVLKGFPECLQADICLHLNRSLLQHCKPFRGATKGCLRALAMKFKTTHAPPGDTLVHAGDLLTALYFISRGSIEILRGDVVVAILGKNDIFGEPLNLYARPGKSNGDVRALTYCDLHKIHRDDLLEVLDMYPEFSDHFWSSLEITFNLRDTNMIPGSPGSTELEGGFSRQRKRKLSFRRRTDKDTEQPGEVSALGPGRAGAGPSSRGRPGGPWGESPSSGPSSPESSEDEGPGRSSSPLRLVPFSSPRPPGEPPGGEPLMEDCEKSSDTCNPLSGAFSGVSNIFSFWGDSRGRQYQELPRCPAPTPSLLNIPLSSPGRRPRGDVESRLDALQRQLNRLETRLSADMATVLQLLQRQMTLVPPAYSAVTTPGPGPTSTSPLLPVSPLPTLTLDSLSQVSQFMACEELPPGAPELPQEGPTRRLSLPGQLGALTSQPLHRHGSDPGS

Binder	binding result (hERG1 [1])	binding result (S5-Pore peptide)	IC50, cell viability of MDA-MB 231 cells (hERG1 [2]) [mg/L]	IC50, cell viability of PANC-1 cells (hERG1 [2]) [mg/L]
B1	binds	binds	–	–
B2	–	–	42	24

Source: US20210147574A1 (UNIVERSIT DEGLI STUDI DI FIRENZE, published 2021)
